10%-maximal effective concentration (EC10), calculated from an in vitro model using THP-1 cells data for 1 substance are collected here from patent US20250319154A1.

This assay has as its target leukocyte function antigen (LFA-1) on THP-1 cells (human) (UniProt P20701). Kind of assay: cell-based or functional assay.

Sequence of leukocyte function antigen (LFA-1) on THP-1 cells (human) (P20701 26-1170, chain 1 of 2): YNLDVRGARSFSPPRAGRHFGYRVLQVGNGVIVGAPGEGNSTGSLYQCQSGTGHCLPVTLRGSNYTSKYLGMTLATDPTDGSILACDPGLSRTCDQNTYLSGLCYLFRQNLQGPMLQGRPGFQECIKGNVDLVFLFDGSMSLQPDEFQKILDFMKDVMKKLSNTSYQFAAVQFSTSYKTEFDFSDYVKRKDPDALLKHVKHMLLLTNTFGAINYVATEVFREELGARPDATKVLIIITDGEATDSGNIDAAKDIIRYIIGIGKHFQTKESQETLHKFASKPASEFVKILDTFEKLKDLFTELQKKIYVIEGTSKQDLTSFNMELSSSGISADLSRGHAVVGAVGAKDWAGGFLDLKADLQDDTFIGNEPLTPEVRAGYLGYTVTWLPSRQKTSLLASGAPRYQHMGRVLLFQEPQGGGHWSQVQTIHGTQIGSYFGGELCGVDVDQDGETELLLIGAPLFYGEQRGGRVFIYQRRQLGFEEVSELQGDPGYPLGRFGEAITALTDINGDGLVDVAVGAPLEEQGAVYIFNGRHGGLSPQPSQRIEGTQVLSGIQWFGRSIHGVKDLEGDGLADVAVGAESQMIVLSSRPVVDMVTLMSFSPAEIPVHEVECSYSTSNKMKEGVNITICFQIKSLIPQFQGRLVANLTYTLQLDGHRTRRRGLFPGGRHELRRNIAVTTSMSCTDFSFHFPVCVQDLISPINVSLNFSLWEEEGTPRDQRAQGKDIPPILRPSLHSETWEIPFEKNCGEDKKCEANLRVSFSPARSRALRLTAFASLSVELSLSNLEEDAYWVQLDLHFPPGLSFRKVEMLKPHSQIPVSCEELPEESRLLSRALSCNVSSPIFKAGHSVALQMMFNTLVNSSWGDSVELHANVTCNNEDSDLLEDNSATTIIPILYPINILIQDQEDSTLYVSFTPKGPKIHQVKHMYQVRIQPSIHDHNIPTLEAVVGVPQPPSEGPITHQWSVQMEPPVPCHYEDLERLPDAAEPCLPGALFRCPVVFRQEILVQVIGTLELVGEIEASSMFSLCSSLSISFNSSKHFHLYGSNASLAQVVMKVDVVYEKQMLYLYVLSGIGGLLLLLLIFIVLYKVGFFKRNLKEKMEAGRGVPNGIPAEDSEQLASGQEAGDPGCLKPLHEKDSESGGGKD
Sequence of leukocyte function antigen (LFA-1) on THP-1 cells (human) (P05107 23-769, chain 2 of 2, further chain): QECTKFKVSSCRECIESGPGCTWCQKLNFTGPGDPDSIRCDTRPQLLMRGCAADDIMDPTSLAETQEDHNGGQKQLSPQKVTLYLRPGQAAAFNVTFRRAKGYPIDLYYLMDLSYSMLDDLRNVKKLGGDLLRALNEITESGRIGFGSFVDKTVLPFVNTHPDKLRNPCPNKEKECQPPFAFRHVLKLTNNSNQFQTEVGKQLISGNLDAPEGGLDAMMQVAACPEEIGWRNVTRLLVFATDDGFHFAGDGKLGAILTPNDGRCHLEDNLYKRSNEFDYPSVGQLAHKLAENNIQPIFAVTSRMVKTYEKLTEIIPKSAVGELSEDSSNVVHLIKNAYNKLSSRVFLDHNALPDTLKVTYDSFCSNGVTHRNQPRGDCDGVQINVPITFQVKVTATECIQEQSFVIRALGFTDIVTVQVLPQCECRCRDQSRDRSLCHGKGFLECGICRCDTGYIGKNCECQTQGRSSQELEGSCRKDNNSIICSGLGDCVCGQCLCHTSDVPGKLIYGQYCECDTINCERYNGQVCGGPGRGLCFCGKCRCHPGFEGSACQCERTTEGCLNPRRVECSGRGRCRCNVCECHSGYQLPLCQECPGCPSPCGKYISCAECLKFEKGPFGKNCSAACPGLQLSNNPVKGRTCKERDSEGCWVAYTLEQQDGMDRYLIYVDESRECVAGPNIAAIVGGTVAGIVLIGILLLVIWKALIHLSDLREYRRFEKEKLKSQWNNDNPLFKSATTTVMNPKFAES

For the substance “Leukotoxin (LtxA) polypeptide isolated from Aggregatibacter actinomycetemcomitans (from UniProt P16462 1-1055)”, the 10%-maximal effective concentration (EC10), calculated from an in vitro model using THP-1 cells was 0.02 µg/mL.
